# Target: Tula virus (TULV) Gn glycoprotein on virions (Tula virus (TULV), strain Moravia)
# Experiment: cryo-EM structure
substance,measurement,value
Tula virus (TULV) Gn glycoprotein on virions (natural protein),stoichiometry N,4

# Source: paper PMC4858563
